According to the supplement of paper PMC12855868:

B1: library; numbered along this chain (parent)
chain: MAAAGGARLLRAASAVLGGPAGRWLHHAGSRAGSSGLLRNRGPGGSAEASRSLSVSARARSSSEDKITVHFINRDGETLTTKGKVGDSLLDVVVENNLDIDGFGACEGTLACSTCHLIFEDHIYEKLDAITDEENDMLDLAYGLTDRSRLGCQICLTKSMDNMTVRVPETVADARQSIDVGKTS

Variants of: B1
Assay: scaled log2 fold change in cell abundance, elesclomol vs control (0 = silent mean, 1 = nonsense mean) (scaled log2 ratio); higher = higher viability under elesclomol (loss of FDX1 cuproptosis function)
Conditions: glucose 10 mM
Description: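 Deep mutational scan of full-length human FDX1: a pooled saturation-mutagenesis ORF library (every residue 2-184 mutated to all 19 amino acids plus stop, and silent codons where available) was expressed by lentivirus in FDX1-knockout ABC1 (14 days) or HEK293T (11 days) cells grown with elesclomol (ES) or DMSO control. Variant abundance came from ORF sequencing. The log2 fold change (ES vs control, mean of duplicates) was centred on the silent-variant mean (0) and scaled to the nonsense-variant mean (1). Higher values mean greater viability under ES, i.e. loss of FDX1 function in cuproptosis.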

[1] = with ABC1 FDX1 KO, elesclomol 5 nM, 14 days
[2] = with HEK293T FDX1 KO, elesclomol 40 nM, 11 days
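Further: variant abundance is its share of total variant reads in each endpoint sample, from next-generation sequencing of the integrated ORF PCR-amplified out of genomic DNA.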

Variant | scaled log2 fold change [1] | scaled log2 fold change [2]
T157Y | 0.175 | -0.241
T157M | 0.046 | 0.00875
T157D | 0.102 | -0.275
S62Q | 0.0996 | 0.145
A13V | 0.347 | –
Q176P | 0.375 | 0.159
M137Q | 0.0471 | -0.244
L117C | 0.0758 | 0.451
A7R | 0.122 | –
N162M | 0.128 | -0.13
L89V | 0.313 | -0.151
F103Y | 0.192 | -0.0547
F103Q | 0.935 | 1.02
H27P | -0.143 | –
A2S | -0.234 | 0.215
V180P | -1.19 | 0.824
V180M | 0.313 | 0.491
I130P | -0.462 | -0.467
I130F | 0.211 | -0.285
H122N | 0.564 | 0.129

Variant | scaled log2 fold change [1] | scaled log2 fold change [2]
S50A | -0.353 | 0.141
H116R | -0.042 | 0.647
H116Y | 0.484 | 1.02
R41C | -0.0654 | -0.255
R41F | 0.347 | -0.469
R74F | 0.533 | -0.0248
V92E | 0.961 | 0.463
V92C | 0.195 | -0.64
V92I | -0.0115 | 0.336
V92G | 0.459 | 0.237
W24M | 0.24 | -0.653
D121E | 0.304 | -0.162
T183I | 0.0224 | -0.426
V94T | -0.0231 | –
V94P | 0.617 | 0.378
T80P | 0.231 | -0.0181
L90C | 0.079 | 0.931
L90S | -1 | 0.27
L90R | -0.127 | -0.461
L138P | 1.15 | 0.887

Variant | scaled log2 fold change [1] | scaled log2 fold change [2]
A4F | -0.326 | 0.068
S56M | -0.109 | 0.0191
S56V | 0.301 | -0.368
T170N | -0.0752 | 0.953
T170L | -0.0824 | -0.244
S159H | -0.58 | 0.214
G18Q | -0.43 | 0.977
G18L | -0.655 | 0.123
G18V | 0.494 | -0.0846
L17A | -0.194 | –
R23Q | 0.00392 | –
C112N | 0.953 | 1.22
C112W | 1.17 | 0.573
K66I | -0.298 | -0.755
N96Q | -0.22 | 0.0675
N96C | -0.324 | -0.592
N96L | 0.0905 | 0.033
D136K | 0.913 | 0.124
D136G | 0.589 | 0.805
